The values below come from publication PMC2804849.

One test has as its target SCF (Homo sapiens) (UniProt Q13616). The conditions noted are these: cited from earlier work.
In test [1] the target is Nedd8-conjugated RC^CFP (human) (UniProt P62877). The test is described as follows: FRET or BRET. On the technique in general: BRET reads energy transfer from a luciferase to a nearby fluorophore.
Test [2] deals with SCF holoenzyme (FRET experiment of Figure S2c) (human) (UniProt P62877). As to the kind of experiment: FRET or BRET.
Test [3] concerns the target Rbx1-Cul1-CFP complex (RC^CFP) (human) (UniProt P62877). As to the kind of experiment: FRET or BRET.

Cdc34, sequence (P49427 whole entry): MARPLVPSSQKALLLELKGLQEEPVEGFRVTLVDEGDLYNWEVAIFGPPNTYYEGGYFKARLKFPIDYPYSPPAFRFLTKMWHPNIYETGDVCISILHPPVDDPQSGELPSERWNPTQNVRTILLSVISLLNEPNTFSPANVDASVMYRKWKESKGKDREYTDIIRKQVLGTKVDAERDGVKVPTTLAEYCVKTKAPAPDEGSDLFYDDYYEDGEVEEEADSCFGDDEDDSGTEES

As to Cdc34 (from UniProt P49427), the Kd with SCF (Homo sapiens) was 20 nM.
“human Cdc34 charged with ubiquitin (Cdc34~Ub) (from UniProt Q712K3 1-238; P0CG48 1-76) (complex)” had a fold change of the kinetic parameters against uncharged Cdc34 in test [1] of 2 fold.
In test [2], “human Cdc34, WT, labelled with Lumio Green at the C-terminus (from UniProt Q712K3 1-238) (enzyme)” came in with a fold change of koff against RC^CFP heterodimer of less than 2 fold. In test [3], this substance returned a Kd of 74 nM, a koff of 35 s⁻¹ and a kon of 4.7e+08 M⁻¹ s⁻¹.

For orientation: Kd means the equilibrium constant for the complex coming apart. For orientation: koff means the rate constant with which the complex falls apart. The term kon denotes the rate constant with which the complex forms. A low value points to slower complex formation.
